Assay results from paper PMC10149931, “Wiskott-Aldrich syndrome protein interacts and inhibits diacylglycerol kinase alpha promoting IL-2 induction” (Frontiers in Immunology, 2023).

Biological target: myc-DGKα (UniProt P23743 1-735)
Test: cell-based or functional assay

Sequence of myc-DGKα (P23743 whole entry): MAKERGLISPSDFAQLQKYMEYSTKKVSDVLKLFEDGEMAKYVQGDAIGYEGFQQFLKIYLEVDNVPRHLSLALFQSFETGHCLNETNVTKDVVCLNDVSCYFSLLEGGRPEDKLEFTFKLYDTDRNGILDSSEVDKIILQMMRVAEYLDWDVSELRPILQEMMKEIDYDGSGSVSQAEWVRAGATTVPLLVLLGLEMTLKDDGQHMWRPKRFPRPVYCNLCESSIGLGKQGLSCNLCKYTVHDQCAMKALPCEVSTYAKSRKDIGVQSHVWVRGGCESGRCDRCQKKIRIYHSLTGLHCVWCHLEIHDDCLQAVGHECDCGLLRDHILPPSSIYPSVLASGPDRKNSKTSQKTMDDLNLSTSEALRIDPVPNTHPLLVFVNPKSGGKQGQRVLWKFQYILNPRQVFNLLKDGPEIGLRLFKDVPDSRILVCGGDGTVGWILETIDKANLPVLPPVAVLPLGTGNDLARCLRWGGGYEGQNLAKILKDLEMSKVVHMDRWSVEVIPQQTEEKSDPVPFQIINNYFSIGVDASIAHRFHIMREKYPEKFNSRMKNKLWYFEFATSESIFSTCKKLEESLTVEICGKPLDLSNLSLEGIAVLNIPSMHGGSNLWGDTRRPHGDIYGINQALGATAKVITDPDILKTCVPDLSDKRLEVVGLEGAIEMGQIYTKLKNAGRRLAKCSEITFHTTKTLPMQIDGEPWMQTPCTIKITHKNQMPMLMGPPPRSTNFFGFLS

decrease in DGK activity of total homogenates of 293T cells co-transfected with myc-DGKα and FLAG-WASp, against myc-DGKα with GFP control vector: ~50%
B1: FLAG-WASp (natural protein, UniProt P42768 1-502, looked up)
chain: MSGGPMGGRPGGRGAPAVQQNIPSTLLQDHENQRLFEMLGRKCLTLATAVVQLYLALPPGAEHWTKEHCGAVCFVKDNPQKSYFIRLYGLQAGRLLWEQELYSQLVYSTPTPFFHTFAGDDCQAGLNFADEDEAQAFRALVQEKIQKRNQRQSGDRRQLPPPPTPANEERRGGLPPLPLHPGGDQGGPPVGPLSLGLATVDIQNPDITSSRYRGLPAPGPSPADKKRSGKKKISKADIGAPSGFKHVSHVGWDPQNGFDVNNLDPDLRSLFSRAGISEAQLTDAETSKLIYDFIEDQGGLEAVRQEMRRQEPLPPPPPPSRGGNQLPRPPIVGGNKGRSGPLPPVPLGIAPPPPTPRGPPPPGRGGPPPPPPPATGRSGPLPPPPPGAGGPPMPPPPPPPPPPPSSGNGPAPPPLPPALVPAGGLAPGGGRGALLDQIRQGIQLNKTPGAPESSALQPPPQSSEGLVGALMHVMQKRSRAIHSSDEGEDQAGDEDEDDEWDD
